Source: paper PMC2267099, “Inhibition of Horse Liver Alcohol Dehydrogenase by Methyltin Compounds” (Bioinorganic Chemistry and Applications, 2005)

Substrate: CCO
Assay: purified protein
Assay type: biochemical, Equus caballus
Details: no inhibitor, NAD+ 0.6 mM, pH 9.5 TRIS-HCl 0.05 M, room temperature

B1: alcohol dehydrogenase from horse liver (HLADH) (Equus caballus) (protein)
chain: STAGKVIKCKAAVLWEEKKPFSIEEVEVAPPKAHEVRIKMVATGICRSDDHVVSGTLVTPLPVIAGHEAAGIVESIGEGVTTVRPGDKVIPLFTPQCGKCRVCKHPEGNFCLKNDLSMPRGTMQDGTSRFTCRGKPIHHFLGTSTFSQYTVVDEISVAKIDAASPLEKVCLIGCGFSTGYGSAVKVAKVTQGSTCAVFGLGGVGLSVIMGCKAAGAARIIGVDINKDKFAKAKEVGATECVNPQDYKKPIQEVLTEMSNGGVDFSFEVIGRLDTMVTALSCCQEAYGVSVIVGVPPDSQNLSMNPMLLLSGRTWKGAIFGGFKSKDSVPKLVADFMAKKFALDPLITHVLPFEKINEGFDLLRSGESIRTILTF
notes: commercial native enzyme from horse liver (Fluka AG), full length, used as received
Km: 46.7 ± 0.8 mM
